In the experiment the target is T1, hPDL1(19-239)-TVMV-His (human, UniProt Q9NZQ7 19-239).
T1 construct: Expressed in HEK293T cells; The text says amino acids 18-239, but the construct is named hPD-L1(19-239); The whole entry, including the TVMV site and His tag, is the protein used in the assay; also called PD-L1-TVMV-His; PD-L1-His
Description: HTRF competition of PD-1-Ig binding to PD-L1-His; code A=0.01-0.06 µM. The method, then:
Homogenous Time-Resolved Fluorescence (HTRF) Assays of Binding of Soluble PD-1 to Soluble PD-L1. Soluble PD-1 and soluble PD-L1 refers to proteins with carboxyl-end truncations that remove the transmembrane-spanning regions and are fused to heterologous sequences, specifically the Fc portion of the human immunoglobuling G sequence (Ig) or the hexahistidine epitope tag (His). All binding studies were performed in an HTRF assay buffer consisting of dPBS supplemented with 0.1% (w/v) bovine serum albumin and 0.05% (v/v) Tween-20. For the PD-1-Ig/PD-L1-His binding assay, inhibitors were pre-incubated with PD-L1-His (10 nM final) for 15 m in 4 μl of assay buffer, followed by addition of PD-1-Ig (20 nM final) in 1 μl of assay buffer and further incubation for 15 m. PD-L1 fusion proteins from either human, cynomologous macaques, mouse, or other species were used. HTRF detection was achieved using europium crypate-labeled anti-Ig monoclonal antibody (1 nM final) and allophycocyanin (APC) labeled anti-His monoclonal antibody (20 nM final). Antibodies were diluted in HTRF detection buffer and 5 μl was dispensed on top of binding reaction. The reaction was allowed to equilibrate for 30 minutes and signal (665 nm/620 nm ratio) was obtained using an EnVision fluorometer. Additional binding assays were established between PD-1-Ig/PD-L2-His (20 and 5 nM, respectively), CD80-His/PD-L1-Ig (100 and 10 nM, respectively) and CD80-His/CTLA4-Ig (10 and 5 nM, respectively). Binding/competition studies between biotinylated Compound No. 71 and human PD-L1-His were performed as follows. Macrocyclic peptide inhibitors were pre-incubated with PD-L1-His (10 nM final) for 60 minutes in 4 μl of assay buffer followed by addition of biotinylated Compound No. 71 (0.5 nM final) in 1 μl of assay buffer. Binding was allowed to equilibrate for 30 minutes followed by addition of europium crypated labeled Streptavidin (2.5 pM final) and APC-labeled anti-His (20 nM final) in 5 μl of HTRF buffer. The reaction was allowed to equilibrate for 30 m and signal (665 nm/620 nm ratio) was obtained using an EnVision fluorometer.
On the technique in general: In TR-FRET formats the signal depends on donor and acceptor labels being close together.

Bridge positions count the residues as written; N and C are the ends. Square brackets hold non-standard residues; d marks the D form. Ends that are not written are not given here. * marks the point of attachment. Hyp = O=C(O)[C@@H]1C[C@@H](O)CN1; NMeNle = CCCC[C@H](NC)C(=O)O; NMeA = CN[C@@H](C)C(=O)O; Dap = NC[C@H](N)C(=O)O; NH(propargyl) = C#CCN*

The text below walks through data of patent publication US20160272680A1 (Bristol-Myers Squibb, published 2016).

T1 sequence (Q9NZQ7 other isoform, or with tags, fused parts or gaps limits assumed): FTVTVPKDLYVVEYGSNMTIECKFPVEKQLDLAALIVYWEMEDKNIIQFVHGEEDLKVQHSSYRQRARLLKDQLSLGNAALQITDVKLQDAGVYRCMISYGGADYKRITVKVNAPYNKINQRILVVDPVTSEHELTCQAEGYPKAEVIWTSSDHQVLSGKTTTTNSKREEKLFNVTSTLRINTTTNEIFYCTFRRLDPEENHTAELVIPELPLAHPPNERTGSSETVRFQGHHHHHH

For orientation: IC50 means the midpoint of a concentration-inhibition curve. Lower therefore signals inhibition by little substance. Molecule {CH2CO}-Y[NMeA]NP[Dap]L[Hyp]WGW[NMeNle][NMeNle]LCG-{N‑(3-aminopropyl)diethanolamine} (thioether N-14, Macrocyclic peptide) [Example 13107] returned an IC50 of 10 to 60 nM.

Regarding {CH2CO}-Y[NMeA]NP[Dap]L[Hyp]WGW[NMeNle][NMeNle]LCG-cyclobutylamide (thioether N-14, Macrocyclic peptide) [Example 13092], the IC50 is 10 to 60 nM.

{CH2CO}-Y[NMeA]NP[Dap]L[Hyp]WGW[NMeNle][NMeNle]LCG-{2‑(phenylthio)ethanamine amide} (thioether N-14, Macrocyclic peptide) [Example 13101] had an IC50 of 10 to 60 nM.

Molecule {CH2CO}-Y[NMeA]NP[Dap]L[Hyp]WGW[NMeNle][NMeNle]LCG-butylamide (thioether N-14, Macrocyclic peptide) [Example 13100] displayed a half-maximal inhibitory concentration (IC50) of 10 to 60 nM.

As to {CH2CO}-Y[NMeA]NP[Dap]L[Hyp]WGW[NMeNle][NMeNle]LCG-{2‑aminoethylmethylsulfone} (thioether N-14, Macrocyclic peptide) [Example 13116], the IC50 lay in the range of 10 to 60 nM.

{CH2CO}-Y[NMeA]NP[Dap]L[Hyp]WGW[NMeNle][NMeNle]LCG-{tert‑butyl 3‑aminopropanoate} (thioether N-14, Macrocyclic peptide) [Example 13109] yielded an IC50 of 10 to 60 nM.

{CH2CO}-Y[NMeA]NP[Dap]L[Hyp]WGW[NMeNle][NMeNle]LCG-{4‑piperidinemethanol} (thioether N-14, Macrocyclic peptide) [Example 13111]: the IC50 was in the range of 10 to 60 nM.

Molecule {CH2CO}-Y[NMeA]NP[Dap]L[Hyp]WGW[NMeNle][NMeNle]LCG-{4‑(4-chlorophenyl)piperidine} (thioether N-14, Macrocyclic peptide) [Example 13115] yielded an IC50 of 10 to 60 nM.

With {CH2CO}-Y[NMeA]NP[Dap]L[Hyp]WGW[NMeNle][NMeNle]LCG-{2‑phenoxyethylamine} (thioether N-14, Macrocyclic peptide) [Example 13108], the IC50 lay within 10 to 60 nM.

With {CH2CO}-Y[NMeA]NP[Dap]L[Hyp]WGW[NMeNle][NMeNle]LCG-{4‑aminocyclohexanol} (thioether N-14, Macrocyclic peptide) [Example 13106], the IC50 lay within 10 to 60 nM.

{CH2CO}-Y[NMeA]NP[Dap]L[Hyp]WGW[NMeNle][NMeNle]LCG-{2‑methoxyethylamide} (thioether N-14, Macrocyclic peptide) [Example 13082] displayed an IC50 of 10 to 60 nM.

{CH2CO}-Y[NMeA]NP[Dap]L[Hyp]WGW[NMeNle][NMeNle]LCG-{3‑(aminomethyl)pyridine amide} (thioether N-14, Macrocyclic peptide) [Example 13094] displayed an IC50 of 10 to 60 nM.

{CH2CO}-Y[NMeA]NP[Dap]L[Hyp]WGW[NMeNle][NMeNle]LCG-{N,N‑dimethyl‑1,3‑propanediamine amide} (thioether N-14, Macrocyclic peptide) [Example 13098] came in with an IC50 of 10 to 60 nM.

As for {CH2CO}-Y[NMeA]NP[Dap]L[Hyp]WGW[NMeNle][NMeNle]LCG-{N‑Boc‑1,5‑diaminopentane} (thioether N-14, Macrocyclic peptide) [Example 13112], the IC50 fell in the range of 10 to 60 nM.

{CH2CO}-Y[NMeA]NP[Dap]L[Hyp]WGW[NMeNle][NMeNle]LCG-{methylpiperazine amide} (thioether N-14, Macrocyclic peptide) [Example 13089]: the IC50 lay within 10 to 60 nM.

{CH2CO}-Y[NMeA]NP[Dap]L[Hyp]WGW[NMeNle][NMeNle]LCG-{N‑methyl‑N‑propylamide} (thioether N-14, Macrocyclic peptide) [Example 13084] returned an IC50 of 10 to 60 nM.

Take {CH2CO}-Y[NMeA]NP[Dap]L[Hyp]WGW[NMeNle][NMeNle]LCG-allylamide (thioether N-14, Macrocyclic peptide) [Example 13097]: the IC50 is 10 to 60 nM.

As to {CH2CO}-Y[NMeA]NP[Dap]L[Hyp]WGW[NMeNle][NMeNle]LCG-{pyrrolidin‑1‑yl amide} (thioether N-14, Macrocyclic peptide) [Example 13085], the IC50 fell in the range of 10 to 60 nM.

In turn, {CH2CO}-Y[NMeA]NP[Dap]L[Hyp]WGW[NMeNle][NMeNle]LCG-{1‑(3-aminopropyl)imidazole amide} (thioether N-14, Macrocyclic peptide) [Example 13099] gave an IC50 of 10 to 60 nM.

The molecule {CH2CO}-Y[NMeA]NP[Dap]L[Hyp]WGW[NMeNle][NMeNle]LCG-{4‑(dimethylamino)piperidine amide} (thioether N-14, Macrocyclic peptide) [Example 13103] returned an IC50 of 10 to 60 nM.

{CH2CO}-Y[NMeA]NP[Dap]L[Hyp]WGW[NMeNle][NMeNle]LCG-{ethanolamine amide} (thioether N-14, Macrocyclic peptide) [Example 13095] yielded an IC50 of 10 to 60 nM.

B1: Example 13096 (peptide)
peptide: {CH2CO}-Y[NMeA]NP[Dap]L[Hyp]WGW[NMeNle][NMeNle]LCG-{NH(propargyl)}
modifications: thioether N-14
SMILES: C#CCNC(=O)CNC(=O)[C@@H]1CSCC(=O)N[C@@H](Cc2ccc(O)cc2)C(=O)N(C)[C@@H](C)C(=O)N[C@@H](CC(N)=O)C(=O)N2CCC[C@H]2C(=O)N[C@@H](CN)C(=O)N[C@@H](CC(C)C)C(=O)N2C[C@H](O)C[C@H]2C(=O)N[C@@H](Cc2c[nH]c3ccccc23)C(=O)NCC(=O)N[C@@H](Cc2c[nH]c3ccccc23)C(=O)N(C)[C@@H](CCCC)C(=O)N(C)[C@@H](CCCC)C(=O)N[C@@H](CC(C)C)C(=O)N1
notes: Macrocyclic peptide
B1 registered an IC50 of 10 to 60 nM.

{CH2CO}-Y[NMeA]NP[Dap]L[Hyp]WGW[NMeNle][NMeNle]LCG-{N‑(2-aminoethyl)‑N‑methyl carbamic acid tert‑butyl ester} (thioether N-14, Macrocyclic peptide) [Example 13113] yielded an IC50 of 10 to 60 nM.

{CH2CO}-Y[NMeA]NP[Dap]L[Hyp]WGW[NMeNle][NMeNle]LCG (thioether N-14; not fully specified (C-terminus), Macrocyclic peptide) [Example 13104] came in with an IC50 of 10 to 60 nM.

Consider {CH2CO}-Y[NMeA]NP[Dap]L[Hyp]WGW[NMeNle][NMeNle]LCG-{morpholine amide} (thioether N-14, Macrocyclic peptide) [Example 13087], for which the IC50 was 10 to 60 nM.
